# Laboratory results taken from publication PMC6365180 (Structure (London, England : 1993), 2018).
# Target: TATA box-binding protein (TBP) (UniProt P20226 1-339)
# Assay: SPR
# TATA box-binding protein (TBP), sequence (P20226 whole entry): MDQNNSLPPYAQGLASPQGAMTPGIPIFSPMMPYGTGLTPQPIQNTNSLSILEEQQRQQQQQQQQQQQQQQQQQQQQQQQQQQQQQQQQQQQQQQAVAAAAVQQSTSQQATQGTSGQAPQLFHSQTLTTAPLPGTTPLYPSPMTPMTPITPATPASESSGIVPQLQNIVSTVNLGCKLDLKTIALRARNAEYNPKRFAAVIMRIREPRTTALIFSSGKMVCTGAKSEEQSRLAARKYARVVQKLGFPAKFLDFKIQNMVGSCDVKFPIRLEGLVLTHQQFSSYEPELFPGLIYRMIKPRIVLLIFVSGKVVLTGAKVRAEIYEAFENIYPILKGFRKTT
row,Kd [µM],Binder
1,53 ± 12,"N-terminal transactivation domain (NTD) of human estrogen receptor alpha, wild type (SNA-M1-Y184) (domain or fragment) SNAMTMTLHTKASGMALLHQIQGNELEPLNRPQLKIPLERPLGEVYLDSSKPAVYNYPEGAAYEFNAAAAANAQVYGQTGLPYGPGSEAAAFGSNGLGGFPPLNSVSPSPLMLLHPPPQLSPFLQPHGQQVPYYLENEPSGYTVREAGPPAFYRPNSDNRRQGGRERLASTNDKGSMAMESAKETRY"
2,3.9 ± 0.4,"N-terminal transactivation domain (NTD) of human estrogen receptor alpha, S118D mutant (domain or fragment) SNAMTMTLHTKASGMALLHQIQGNELEPLNRPQLKIPLERPLGEVYLDSSKPAVYNYPEGAAYEFNAAAAANAQVYGQTGLPYGPGSEAAAFGSNGLGGFPPLNSVSPSPLMLLHPPPQLDPFLQPHGQQVPYYLENEPSGYTVREAGPPAFYRPNSDNRRQGGRERLASTNDKGSMAMESAKETRY"
